Test results: US20100081612A1 (GENERAL HOSPITAL, published 2010)
Where no end group is shown, it is not given here. [ ]: non-standard residue; d: D form. Cha = N[C@@H](CC1CCCCC1)C(=O)O

B1: human PTH(1-31)NH2 (peptide)
peptide: SVSEIQLMHNLGKHLNSMERVEWLRKKLQDV-NH2
notes: also called hPTH(1-31)NH2; parental PTH(1-31)NH2 peptide
B2: [Ala^1,Arg^19]hPTH(1-31)NH2 Lys^26→Cha (peptide)
peptide: AVSEIQLMHNLGKHLNSMRRVEWLR[Cha]KLQDV-NH2
modifications: N-terminus assumed
SMILES: CC[C@H](C)[C@H](NC(=O)[C@H](CCC(=O)O)NC(=O)[C@H](CO)NC(=O)[C@@H](NC(=O)[C@H](C)N)C(C)C)C(=O)N[C@@H](CCC(N)=O)C(=O)N[C@@H](CC(C)C)C(=O)N[C@@H](CCSC)C(=O)N[C@@H](Cc1c[nH]cn1)C(=O)N[C@@H](CC(N)=O)C(=O)N[C@@H](CC(C)C)C(=O)NCC(=O)N[C@@H](CCCCN)C(=O)N[C@@H](Cc1c[nH]cn1)C(=O)N[C@@H](CC(C)C)C(=O)N[C@@H](CC(N)=O)C(=O)N[C@@H](CO)C(=O)N[C@@H](CCSC)C(=O)N[C@@H](CCCNC(=N)N)C(=O)N[C@@H](CCCNC(=N)N)C(=O)N[C@H](C(=O)N[C@@H](CCC(=O)O)C(=O)N[C@@H](Cc1c[nH]c2ccccc12)C(=O)N[C@@H](CC(C)C)C(=O)N[C@@H](CCCNC(=N)N)C(=O)N[C@@H](CC1CCCCC1)C(=O)N[C@@H](CCCCN)C(=O)N[C@@H](CC(C)C)C(=O)N[C@@H](CCC(N)=O)C(=O)N[C@@H](CC(=O)O)C(=O)N[C@H](C(N)=O)C(C)C)C(C)C
B3: [Ala^1,Arg^19]hPTH(1-31)NH2 Val^31→Cha (peptide)
peptide: AVSEIQLMHNLGKHLNSMRRVEWLRKKLQD[Cha]-NH2
modifications: N-terminus assumed
SMILES: CC[C@H](C)[C@H](NC(=O)[C@H](CCC(=O)O)NC(=O)[C@H](CO)NC(=O)[C@@H](NC(=O)[C@H](C)N)C(C)C)C(=O)N[C@@H](CCC(N)=O)C(=O)N[C@@H](CC(C)C)C(=O)N[C@@H](CCSC)C(=O)N[C@@H](Cc1c[nH]cn1)C(=O)N[C@@H](CC(N)=O)C(=O)N[C@@H](CC(C)C)C(=O)NCC(=O)N[C@@H](CCCCN)C(=O)N[C@@H](Cc1c[nH]cn1)C(=O)N[C@@H](CC(C)C)C(=O)N[C@@H](CC(N)=O)C(=O)N[C@@H](CO)C(=O)N[C@@H](CCSC)C(=O)N[C@@H](CCCNC(=N)N)C(=O)N[C@@H](CCCNC(=N)N)C(=O)N[C@H](C(=O)N[C@@H](CCC(=O)O)C(=O)N[C@@H](Cc1c[nH]c2ccccc12)C(=O)N[C@@H](CC(C)C)C(=O)N[C@@H](CCCNC(=N)N)C(=O)N[C@@H](CCCCN)C(=O)N[C@@H](CCCCN)C(=O)N[C@@H](CC(C)C)C(=O)N[C@@H](CCC(N)=O)C(=O)N[C@@H](CC(=O)O)C(=O)N[C@@H](CC1CCCCC1)C(N)=O)C(C)C
B4: [Ala^1,Arg^19]hPTH(1-31)NH2 Leu^28→Cha (peptide)
peptide: AVSEIQLMHNLGKHLNSMRRVEWLRKK[Cha]QDV-NH2
modifications: N-terminus assumed
SMILES: CC[C@H](C)[C@H](NC(=O)[C@H](CCC(=O)O)NC(=O)[C@H](CO)NC(=O)[C@@H](NC(=O)[C@H](C)N)C(C)C)C(=O)N[C@@H](CCC(N)=O)C(=O)N[C@@H](CC(C)C)C(=O)N[C@@H](CCSC)C(=O)N[C@@H](Cc1c[nH]cn1)C(=O)N[C@@H](CC(N)=O)C(=O)N[C@@H](CC(C)C)C(=O)NCC(=O)N[C@@H](CCCCN)C(=O)N[C@@H](Cc1c[nH]cn1)C(=O)N[C@@H](CC(C)C)C(=O)N[C@@H](CC(N)=O)C(=O)N[C@@H](CO)C(=O)N[C@@H](CCSC)C(=O)N[C@@H](CCCNC(=N)N)C(=O)N[C@@H](CCCNC(=N)N)C(=O)N[C@H](C(=O)N[C@@H](CCC(=O)O)C(=O)N[C@@H](Cc1c[nH]c2ccccc12)C(=O)N[C@@H](CC(C)C)C(=O)N[C@@H](CCCNC(=N)N)C(=O)N[C@@H](CCCCN)C(=O)N[C@@H](CCCCN)C(=O)N[C@@H](CC1CCCCC1)C(=O)N[C@@H](CCC(N)=O)C(=O)N[C@@H](CC(=O)O)C(=O)N[C@H](C(N)=O)C(C)C)C(C)C
B5: [Ala^1,Arg^19]hPTH(1-31)NH2 Gln^29→Cha (peptide)
peptide: AVSEIQLMHNLGKHLNSMRRVEWLRKKL[Cha]DV-NH2
modifications: N-terminus assumed
SMILES: CC[C@H](C)[C@H](NC(=O)[C@H](CCC(=O)O)NC(=O)[C@H](CO)NC(=O)[C@@H](NC(=O)[C@H](C)N)C(C)C)C(=O)N[C@@H](CCC(N)=O)C(=O)N[C@@H](CC(C)C)C(=O)N[C@@H](CCSC)C(=O)N[C@@H](Cc1c[nH]cn1)C(=O)N[C@@H](CC(N)=O)C(=O)N[C@@H](CC(C)C)C(=O)NCC(=O)N[C@@H](CCCCN)C(=O)N[C@@H](Cc1c[nH]cn1)C(=O)N[C@@H](CC(C)C)C(=O)N[C@@H](CC(N)=O)C(=O)N[C@@H](CO)C(=O)N[C@@H](CCSC)C(=O)N[C@@H](CCCNC(=N)N)C(=O)N[C@@H](CCCNC(=N)N)C(=O)N[C@H](C(=O)N[C@@H](CCC(=O)O)C(=O)N[C@@H](Cc1c[nH]c2ccccc12)C(=O)N[C@@H](CC(C)C)C(=O)N[C@@H](CCCNC(=N)N)C(=O)N[C@@H](CCCCN)C(=O)N[C@@H](CCCCN)C(=O)N[C@@H](CC(C)C)C(=O)N[C@@H](CC1CCCCC1)C(=O)N[C@@H](CC(=O)O)C(=O)N[C@H](C(N)=O)C(C)C)C(C)C
B6: [Ala^1,Arg^19]hPTH(1-31)NH2 Asp^30→Cha (peptide)
peptide: AVSEIQLMHNLGKHLNSMRRVEWLRKKLQ[Cha]V-NH2
modifications: N-terminus assumed
SMILES: CC[C@H](C)[C@H](NC(=O)[C@H](CCC(=O)O)NC(=O)[C@H](CO)NC(=O)[C@@H](NC(=O)[C@H](C)N)C(C)C)C(=O)N[C@@H](CCC(N)=O)C(=O)N[C@@H](CC(C)C)C(=O)N[C@@H](CCSC)C(=O)N[C@@H](Cc1c[nH]cn1)C(=O)N[C@@H](CC(N)=O)C(=O)N[C@@H](CC(C)C)C(=O)NCC(=O)N[C@@H](CCCCN)C(=O)N[C@@H](Cc1c[nH]cn1)C(=O)N[C@@H](CC(C)C)C(=O)N[C@@H](CC(N)=O)C(=O)N[C@@H](CO)C(=O)N[C@@H](CCSC)C(=O)N[C@@H](CCCNC(=N)N)C(=O)N[C@@H](CCCNC(=N)N)C(=O)N[C@H](C(=O)N[C@@H](CCC(=O)O)C(=O)N[C@@H](Cc1c[nH]c2ccccc12)C(=O)N[C@@H](CC(C)C)C(=O)N[C@@H](CCCNC(=N)N)C(=O)N[C@@H](CCCCN)C(=O)N[C@@H](CCCCN)C(=O)N[C@@H](CC(C)C)C(=O)N[C@@H](CCC(N)=O)C(=O)N[C@@H](CC1CCCCC1)C(=O)N[C@H](C(N)=O)C(C)C)C(C)C

Each binder was assayed against T1, wild-type human PTHR (human, UniProt Q03431 27-593) (assay: cell-based or functional assay).
T1 sequence (looked up): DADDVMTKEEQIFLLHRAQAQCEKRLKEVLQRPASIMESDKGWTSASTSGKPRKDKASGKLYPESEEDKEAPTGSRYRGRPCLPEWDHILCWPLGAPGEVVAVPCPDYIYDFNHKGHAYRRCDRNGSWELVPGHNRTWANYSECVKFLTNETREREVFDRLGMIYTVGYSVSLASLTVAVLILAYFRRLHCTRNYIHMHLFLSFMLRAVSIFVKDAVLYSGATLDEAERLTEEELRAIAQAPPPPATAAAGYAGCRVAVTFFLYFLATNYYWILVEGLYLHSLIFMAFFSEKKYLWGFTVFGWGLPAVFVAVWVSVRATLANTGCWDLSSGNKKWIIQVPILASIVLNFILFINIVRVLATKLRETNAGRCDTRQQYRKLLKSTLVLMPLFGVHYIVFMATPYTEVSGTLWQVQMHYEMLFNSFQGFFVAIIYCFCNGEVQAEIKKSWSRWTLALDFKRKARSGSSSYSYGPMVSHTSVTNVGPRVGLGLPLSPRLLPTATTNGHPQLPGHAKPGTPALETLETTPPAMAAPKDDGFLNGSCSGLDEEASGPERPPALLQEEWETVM
B1 was tested, and the “inositol phosphate (IP) production, peptide at 1×10^-6 M” value was 4 fold.

What follows are binders tested against T1, wild-type human PTHR (assay: competition binding, HKRK-B7 cells, 125I-PTH(1-34) tracer).
With B2 the “fold change in binding affinity vs [Ala^1,Arg^19]PTH(1-31)NH2” value (“fold change in binding affinity” for short) was at most 6 fold. With B3 the “fold change in binding affinity” value was at most 6 fold. In the case of B4, the “fold change in binding affinity” value is reported as at most 6 fold. For B5, the “fold change in binding affinity” value was at most 6 fold. In the case of B6, the “fold change in binding affinity” value is reported as at most 6 fold. AVSEIQLMHNLGKHLNSMRRVEWL[Cha]KKLQDV-NH2 [[Ala^1,Arg^19]hPTH(1-31)NH2 Arg^25→Cha] was tested, and the “fold change in binding affinity” value was at most 6 fold.

Molecular target: T1, wild-type human PTHR
Assay: as above
Remark: another data set of the same source
Protocol: (§1) Receptor binding—Binding to the wild-type human PTHR in intact HKRK-B7 cells and ROS 17/2.8 cells was assessed using ¹²⁵I-PTH(1-34) as a tracer radioligand, as described (Shimizu, M., (2001) Endocrinology 142:3068-3074). In brief, the cells in 24-well plates (about 500,000 cells per well) were incubated in binding buffer containing radioligand (about 100,000 cpm per well) with or without unlabeled peptide ligand (3×10⁻⁹ to 1×10⁻⁵ M) for four hours at 15° C. The binding mixture was then removed by aspiration, the cells were rinsed three times with binding buffer, lysed in 1 M NaOH, and the entire lysate was counted for gamma-irradiation in a gamma counter. Binding to PTHR-delNt in COS-7 cell membranes was assessed in 96-well, vacuum filtration plates (Multiscreen-Durapore HV, […], Millipore Corp., Millford, Mass.) using ¹²⁵I-[Aib^{1,3},M]PTH(1-15)NH₂ as a tracer radioligand, as described (Dean, T., (2006) Mol Endocrinol 20:931-942). In brief, cell membranes (20 μg/well) were incubated in membrane binding buffer containing radioligand (30,000 cpm/well) with or without unlabeled peptide ligand (3×10⁻⁹ to 1×10⁻⁵ M) for 90 minutes at 21° C. The plates were then subject to rapid vacuum filtration, the filters were washed once with buffer, detached from the plate and counted for gamma-irradiation in a gamma counter. Non-specific binding was defined as the binding observed in the presence of 1×10⁻⁶ M PTH(1-31)NH₂ for HKRK-B7 and ROS 17/2.8 cells, and 1×10⁻⁶ M [Aib^{1,3},M]PTH(1-15)NH₂ for PTHR-delNt. Specifically bound radioactivity was calculated as a percentage of the radioactivity specifically bound in the absence of competing ligand.
Alanine-Scan of the PTH(17-31) domain—Each residue in the (17-31) region of PTH(1-31)NH₂ was individually replaced with alanine and the effects of the substitutions on binding to the intact human PTHR stably expressed in HKRK-B7 cells was assessed. Competition binding studies were performed using whole cells and ¹²⁵I-PTH(1-34) (¹²⁵I-[Nle^{8,21},Tyr³⁴]ratPTH(1-34)NH₂) as a tracer radioligand.
B1 showed an IC50 of 68 nM.

Molecular target: T1, wild-type human PTHR
Assay: as above
Remark: another data set of the same source
Protocol: as §1
Cyclohexylalanine and glutamate substitutions were introduced into [Ala¹,Arg¹⁹]hPTH(1-31)NH₂. The helical residue values were calculated from [θ]₂₂₂, the mean-residue elipticities observed in the CD spectra at 222 nm. Competition binding studies were performed in intact HKRK-B7 cells stably transfected with the hPTHR using ¹²⁵I-[Nle^{8,21},Tyr³⁴]rPTH(1-34)NH ₂ tracer radioligand, and in membranes prepared from COS-7 cells transiently transfected with hPTHR-delNt and a negative-dominant Gαs using ¹²⁵I-[Aib^{1,3},Nle⁸,Gln¹⁰,Har¹¹,Ala¹²,Trp¹⁴,Tyr¹⁵]rPTH(1-15)NH₂ tracer radioligand. Binding values (nM) are means (+/−s.e.m.) of data from the number of experiments indicated (n).
With B2 the IC50 was 172 nM. In the case of B3, the IC50 is reported as 66 nM. In the case of B4, the IC50 is reported as 65 nM. In the case of B5, the IC50 is reported as 61 nM. B6 was tested, and the IC50 was 54 nM. AVSEIQLMHNLGKHLNSMRRVEWL[Cha]KKLQDV-NH2 [[Ala^1,Arg^19]hPTH(1-31)NH2 Arg^25→Cha] was tested, and the IC50 was 103 nM.

Each binder was assayed against PTHR-delNt (human) (UniProt Q03431) (assay: competition binding, COS-7 membranes, 125I-[Aib1,3,M]PTH(1-15) tracer).
B2 showed an IC50 of 1870 nM. Binder B3 has an IC50 of 466 nM and a fold change in binding affinity vs [Ala^1,Arg^19]PTH(1-31)NH2 of under 3 fold. B1 gave an IC50 of 3670 nM. For B4, the IC50 was 226 nM and the fold change in binding affinity vs [Ala^1,Arg^19]PTH(1-31)NH2 was under 3 fold. Work on B5 yielded an IC50 of 319 nM and a fold change in binding affinity vs [Ala^1,Arg^19]PTH(1-31)NH2 of under 3 fold. With B6 the IC50 was 305 nM and the fold change in binding affinity vs [Ala^1,Arg^19]PTH(1-31)NH2 was under 3 fold. For AVSEIQLMHNLGKHLNSMRRVEWL[Cha]KKLQDV-NH2 [[Ala^1,Arg^19]hPTH(1-31)NH2 Arg^25→Cha], the IC50 was 2710 nM.
